Data as given in article PMC2172197.
Where two headings read alike, the source gives them in different places.

How the values were obtained:
[1] = molecular target: pFd-protAHis (preferredoxin fused to Staphylococcal protein A, COOH-terminal hexahistidine tag); test: pull-down
[2] = molecular target: pFd-protAHis (preferredoxin fused to Staphylococcal protein A, COOH-terminal hexahistidine tag); test: pull-down; remark: listed apart in the source

[35S]atToc159 (in vitro-translated soluble atToc159) (from UniProt O81283 1-1503) (receptor)
percent reduction of binding against GTP [1]: 20%
percent reduction of binding against GTP [2]: 20%

[35S]atToc159-K868R (from UniProt O81283 1-1503) (receptor)
percent less binding than wild-type atToc159 [1]: 60%

[35S]atToc159G (in vitro-translated G domain of atToc159) (domain or fragment)
fold higher binding than to Fd-protAHis [1]: 3 fold
